From the DeepSol protein solubility set

Assay: soluble on expression in E. coli; label from the status in PepcDB or PDB records

Sequence | soluble on expression in E. coli
MSDSTQMEANAAINEIKKRTRKLDQSLQMRFCADQFFIGNHCTKLASGKSIIISQNSKNRICLRFFMAADPLVGYTGRDFGIAFNQIDHISLKDEQQENPAVLICTLNLSSYTKMCKLQTGLKDVVEKPFLYNKSLARNLTFILKPWNDDPDTFVKISYNDEHREYVHSYDYDVAKSLMFKEVQAVWEQSLKEQLQRRHQTGRVYLTSQLSEMTPREWVQFLADQKLSKIVCHNGSIQYARVEDNPHGRKHTAVATNGFDHRGTRVLNSFGKAHASLATQEKSYAKKRKLTEQSLKLIYRNDRSVWLEGSCAKNLKMPKINSEPNMGEFMGWPDMDNAMTHPTSNFENEDVMKSTKQPNDFVSFEQLQAPPPVLQRQNGAIYSTQSVAFTHISGNDGVEDLTEKISHLGEEAYNIDMANALHAFSDNWHYEIHPNTVHNASFEQLHIGDGNSSIGTIGFNPLEPYPQSSFPQSNNWQQAHGDFTFPQVSFPNTQQGSCLPSTPTAALPPTRPVVEKIPPDTQLFTFPPSGSCTTGMDPVVLLVKDIKTLDRKEFLNDSVMAFMLNYIAFMLSSELMKSVHMCNTFLFVNLTRLLPPLCFSKRRPIEPEHIKIVKDNCPRVLRWTRKFDVLAKDYIIIPINEDLHWLVIAVINPSGAIVDMSNEEASRAAPKCYIVFFDPLSGLDPSKKNHMCHCIKIYLAQLYENTKAPGMKFASKNPTIYDEERVVVTRAENTPIQDNFYDCGLYVLHFIEGLFCYPNRPVNVNDFPNFDWSKFFPEANKMCDLMRDKVYNLILQQADKPARSRLAKFERENKCGLSREGALRKARRHSAVNERRTKRHRDYYARHYSLSPPHRNVMNDDPTFMNPRGLAEMPITRLVRRLRIPEDNFPIAY | not soluble
MSLTTATTSQTALRSRKDVPLSDCWDTKSLYASREVWQDELKKVGAEGAPFWPHLSENNFDIKQPSSLRELLTTVFSIERTLDKLYVYAHLTYDEDIANQEAAADLKSITFLLTSFVEEISWIQPALIALPQQVVNMLLASPELQEYHFYLKKLFRLAPHTGTSREEKILASSFPALEVAYKTFSSLTDSEIPFGEAVDSEGKSHPLSHALASLYMQSTDRELRKNTYQKQCQRHHGYRLSLANLLNGKIQAHLFNAKARDYDSCLEAALFQNDISTSVVTTLIDTVKQHTHLITEYFQLKQKALGLSDFHFYDVYAPLVASEASRHYSYQEAVTLICDSLSLLGNDYVETLRKGLTSDGWVDKYENTNKRSGAYSSGCYDSKPYILLNYTGTLYDVSVVAHEGGHSMHSFLSHKHQSYHEAQYPIFLAEIASTLNETLLMEFLLKQAPSKEEKIAILSRSLDTVFATLFRQTLFAAFELEMHSAAEQGLPLTEEFFSQSYEKLQRLFYGDCITFDEHSCIEWARIPHFYYNFYVYQYATGIIASLCFSERILSGEEGAQEAYLTFLRSGGSDFPIEILKKSGLDMTSSAPMLKAFSYIERKLEELASLLEGHHHHHH | soluble
MSLNLDFELNLTQQQKLVMTQQMQMSIKLLQMSNMELNEYIRSEIEENPLLDGKEVIKNDEYQSEMSKVDYKEFIKYLDFDNYTHENYSYRSEEEEVSPFNFIGSKKSFTEYLLDQLREISIDSETRHICEYIIENLDRDGYLRDSLEDIGMAVHKELKSVQNALNVVQSLEPIGVGARNLAECLKLQIYVRNVNDTKLIEIIDKHLGNIAENKYGVIAKELNITPKEAQEYGDYIKKLEPKPSRGFFTGDEVKYVVPDAFIRKIDDDFYVIMNDSSIPKLSINNTYKNILNTENDKKDVDYVKEKLNSAMFLLKSIEQRKTTLYEVLNEILRYQKAYFVGKTNYLRPMTLKDISEKLGMHESTISRAIREKYVYIDTKGLVKIRDMFTTGIASAYSVSEDKKDMSTQKIKNEIRDLIEKENKKSPLSDQKLSEILKEKGMNISRRTVAKYREEIGIKSSAKRKRYEGHHHHHH | soluble
MRICSDQPCIVLLTEKDVWIRVNGKEPISLKANHMALLNCENNIIDVSSLNNTLVAHISHDIIKDYLRFLNKDLSQIPVWQRSATPILTLPCLTPDVFRVAAQHSMMPAETESEKERTRALLFTVLSRFLDSKKFVSLMMYMLRNCVSDSVYQIIESDIHKDWNLSMVASCLCLSPSLLKKKLKSENTSYSQIITTCRMRYAVNELMMDGKNISQVSQSCGYNSTSYFISVFKDFYGMTPLHYVSQHRERTVA | soluble
MDTNSLLSAGSDMAKAANLSDADIIQLSDAACKQSDQESKIAPAGNKYSVRLTKLMRGFGNMTLNGQKVNYKVYMTEDVNAWAMGNGCVRVYTGLMDLMNDDELRGVIGHEMGHVALGHTKKAMQTAYAVSAARQAAGAAGNSVVASLSASQLGEMTEKFINAQFSQSQETAADDFSFDLLTEKKMNRKGLVTAFQKLAELDGGESSMFSSHPSSPDRAARMEKRLQAGKLEHHHHHH | soluble
MAHHHHHHMLQRLQLFRSTLVNFLEWRNFSDVVHGCYVRVLLEMRSTEENRRESPDNYYIALVKGAQRGPVYSGFSADAVTTEWHIVIELPPCFRSTQNGNVVQLNSISNSPFRQAEYQNWVDMTNETRELSFPSLPQLQFRLGMLEEHKQQALTPEPRRHRNGEDAEAAALREWALEEKRKRITEEIMVTHVKLRRIDQLKALSLEDLQEVEREILDLITGVRISINERSKCMLCHNRICTEICYPCKHQVLCKDCAKSIRGRCPAPKCKTPVQYTFEAFTS | not soluble
MGNVMEGKSVEELSSTECHQWYKKFMTECPSGQLTLYEFRQFFGLKNLSPSASQYVEQMFETFDFNKDGYIDFMEYVAALSLVLKGKVEQKLRWYFKLYDVDGNGCIDRDELLTIIQAIRAINPCSDTTMTAEEFTDTVFSKIDVNGDGELSLEEFIEGVQKDQMLLDTLTRSLDLTRIVRRLQNGEQDEEGADEAAEAAG | not soluble
MELYDTEEQQVEAIKDWWKENGKAVIFGAVIGLGGLFGWRYYQDSVVAAQEAASQSYSKAMDALQAKGIESEGTIQTFIDANKETEYAVLAAMQLAKAQVDAGQLDEALAQLEWAKGATKDAALKPLLTFRVARLQAEQGQFDDALTQLTSIQEKSWAGRVAELRGDILMRKGDSAAAYAAYTEAQQAEDASQTLQMKLDDLAK | not soluble
MPKVKTNRVKYPEGWELIEPTLRELDAKMREAETDSHDGKRKCETLWPIFKVSHQRSRYVYDLYYRREEISKELYEFCLDQGYADRSLIAKWKKSGYERLCCLRCIQPRDHNYGTTCVCRVPKHLREEKVVECVHCGCQGCASGD | not soluble
MGSDKIHHHHHHMSTPSPHCALCGIALGERLCRDSEGKSPAFCPTQNFSEIKEENSALYEGETKRFAKNAAIQEASCYEGREQGYAHLRPAKPRIEEIIEFAQKMGYQKLGLAFCMGLRNEAKAVELLLQKRGFEVVSVICKVGNSDKSTLGIDEEDKLIPHTPEAMCDPLLQARLLNESQTDFNIMLGLCVGHDSLFLKASEALCTVFAVKDRLLGHNPLAAIYTLESYYRSLKEG | not soluble
MQDGESNFPLLLLPENAKKHVLRTMDVDFLLSLSFCSKRTKHIVQSLKLKFEHFKMDLLGKTKLMINFRSTTILLVFNALYGDKAWKDVFRTVVSTGPPNARYYNTNFFKSFGWERKELAVEDTIYHIFDILNTNVIDVFLDCNNRNMFFFEKLSQTFRERNVRRISLGSMQNPIFNSFSYLENSLRNQFLELEGLAYLRELYRTLQEEHKILIQNFNYLNPNLPSTGKMTLNELLLINSSHITLTFNEMALNEKSLNIFLKHWINGSNKKLDYMYLSGFTQLGETSVAIEAILKRIVHKEASHDRLFKKFYDPGSNGNIGDNSSSLKHGFDIISNDGTPATASIRISEGVIYFQMKVWDQ | not soluble
MGSVITKETVLQENIYLKKLSGLEPVDDYDPFWNKLLSFSLKFDDDDEDTRIALESALDDHLQCLMYNTQTTGNFAAFIRLFLRRATELKTSEQCENKIYLWQTSNALLILRYIARFLTQRMTEKEFVRIFAKSHESTETESSSTSSSSDEEDDDEQKSENENNNGATKYIPIVFQNTAEEFTYELVSILINISVNETTLAIHVEAVRCLLTLLSSQLYNESIVNTSIVFRFFIDGSCAKHAASLTKTLLLNYLIHNSEYHMTVQKPQESIVFGLASSMWSMVQMATGIDSAEEEKKPPLTLGNLSILLLLNLSCHQPLNSSNPFKETLALFQNAQEVSTLPTQIVSFKIDYNGLYERLCATAGQEPPMLLLYMLLQANSGFRNYVLSRINLENLVVPVLRILHDGVATSNNSHHVYLALIVALILSEDDIFCKIIHETMIKDLGWLDSDFSVREISLGGLTTLVLVRAIQKNALKTRDRYLHTNCLAALANMSAFFKNLAPIVCQRLISLLDLLTKRHAKMVDHMRVSSQNDVADGQPINFHDDITALEEGIRTLLEIINSALCGGLRHNSHLIYNLLYHRALFDAYVQHPMFQDLLVNIAAVISHFSSKVIHVPAGDGSTMLQIIEKEANIWPTDRLAKFPELKFRYVEDEYTVDFFVPYVWRLSVQHSGIYFETSRIKIFNAQSIA | not soluble
MAAKWEKLEGNVGVLTIEVDAKEVNNSIDAAFKKVVKTINVPGFRKGKMPRPLFEQRFGIESLYQDALDIILPKAYGEAIDEAGIFPVAHPEIDIEKFEKNANLIFTAKVTVKPEVKLGEYKGLAVEKVETTVTDEDVENELKSLQERQAELVVKEEGTVENGDTAVIDFEGFVDGEAFEGGKGENYSLAIGSGTFIPGFEEQVIGLKSGESKDVEVSFPEEYHAAELAGKPATFKVTVHEIKTKELPELNDEFAKEADEAVATLDELKAKLRTNLEEGKKHEAEHKVRDEVVELAAANAEIDIPEAMIDTELDRMVREFEQRLSQQGMNLELYYQFTGTDADKLKEQMKEDAQKRVRINLVLEAIIEAENIEVTEEEVTAEVEKMAEMYGMPVDAIKQALGSVDALAEDLKVRKAVDFLVENAA | not soluble
MGSDKIHHHHHHMKVNLPAFERAGVMVVGDVMLDRYWYGPTCRISPEAPVPVVKVNTVEERPGGAANVAMNIASLGANARLVGLTGIDDAARALSKTLAEVNVKCDFVSVPTHPTITKLRVLSRNQQLIRLDFEEGFEGVDPQPLHERINQALGSIGALVLSDYAKGALTSVQTMISLARQAGVPVLIDPKGTDFERYRGATLLTPNLSEFEAVAGKCKSEDELVERGMKLIADYDLSALLVTRSEQGMTLLQPNKAPLHMPTQAQEVYDVTGAGDTVIGVLAATLAAGNTLEEACYFANAAAGVVVGKLGTSTVSPIELENAVRGRADTGFGVMTEEELRQAVASARKRGEKVVMTNGVFDILHAGHVSYLANARKLGDRLIVAVNSDASTKRLKGESRPVNPLEQRMIVLGALESVDWVVSFEEDTPQRLIAGILPDLLVKGGDYKPEEIAGSEEVWANGGEVMVLNFEDGCSTTNIIKKIQTESEK | not soluble
MPVSDQLIDQLLADYESPQDLLGEQGILRQLTKKLAERALEAEMELHLGYAKHDAAGFNTGNSRNGKSRKSVRSIHGDIELETPRDRNGSFEPKLIKKGEKQLGGFDERIVSLYARGMSTRDIQAHFEETYGVEVSPTFISQITNAVLDEVKAWQLRPLAPVYPIVYLDCLVVRSRDSGSIQNKSVYLALGVNTDGEKELLGLWIAQTEGAKFWLSVMNELKNRGVEDIFIACVDGLKGFPDAIEAVYPKTQVQLCIVHQIRNSLRFVSWKERKAVAADLKTIYGAATLQQAELALEQFAKTWDKQHPSISKSWRENWTRLSVFFDYPPEIRKVIYTTNAIESLNASLRQVTKTRRSFPSDDAVLKLLYLALHQIAKKWTMPLRDWKPAMTQFMIMYSDRVSL | not soluble
MQFEKMITEGSNTASAEIDRVSTLEMCRIINDEDKTVPLAVERVLPDIAAAIDVIHAQVSGGGRLIYLGAGTSGRLGILDASECPPTYGVKPGLVVGLIAGGEYAIQHAVEGAEDSREGGVNDLKNINLTAQDVVVGIAASGRTPYVIAGLEYARQLGCRTVGISCNPGSAVSTTAEFAITPIVGAEVVTGSSRMKAGTAQKLVLNMLSTGLMIKSGKVFGNLMVDVVATNEKLHVRQVNIVKNATGCSAEQAEAALIACERNCKTAIVMVLKNLDAAEAKKRLDQHGGFIRQVLDKELEHHHHHH | soluble
